Measured values from the supplement of paper PMC10567573.

B1: KLHDC10 (parent)
chain: PSLLELAWEKLLAAFPNLANLSRT
B2: PLD5 (parent)
chain: WIVDKQHVYIGSAGLDWQSLGQMK

Variants of: B1
Assay: protein stability index of a GFP-peptide fusion (GPS, HEK-293T) (PSI 1-6); higher = more stable
Details: c terminus: a fixed tail appended
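Further: lentivirally expressed fusions sorted by FACS into six bins by GFP to DsRed ratio, PSI derived from sequencing read proportions per bin multiplied by bin number.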

Compared with PSLLELAWEKLLAAFPNLANLSRD [T24D], PSLLELAWEKLLAAFPNLSNLSRT [A19S] is lower in protein stability index: 2.79 for the first, 2 for the second.

Compared with PSLLELAWEKLLAAFPNLENLSRT [A19E], PSLLELAWEKLLAAFPNLPNLSRT [A19P] is lower in protein stability index: 2.31 for the first, 2.29 for the second.

Compared with PSLLELAWEKLLAAFPNLTNLSRT [A19T], PSLLELAWEKLLAAFPNLNNLSRT [A19N] is higher in protein stability index: 1.77 for the first, 2.29 for the second.

Going from PSLLELAWEKLLAAFPNLHNLSRT [A19H] to PSLLELAWEKLLAAFPNLFNLSRT [A19F], the protein stability index rises from 1.93 to 2.

Going from PSLLELAWEKLLAAFPNLINLSRT [A19I] to PSLLELAWEKLLAAFPNLWNLSRT [A19W], the protein stability index falls from 2.32 to 1.57.

Compared with PSLLELAWEKLLAAFPNLYNLSRT [A19Y], PSLLELAWEKLLAAFPNLRNLSRT [A19R] is higher in protein stability index: 2.02 for the first, 2.4 for the second.

First: PSLLELAWEKLLAAFPNLDNLSRT [A19D]
Second: PSLLELAWEKLLAAFPNLKNLSRT [A19K]
The protein stability index of the first is higher: 2.46 for the first, 1.95 for the second.

Going from PSLLELAWEKLLAAFPNLGNLSRT [A19G] to PSLLELAWEKLLAAFPNLQNLSRT [A19Q], the protein stability index rises from 2.17 to 2.37.

First: PSLLELAWEKLLAAFPNLVNLSRT [A19V]
Second: PSLLELAWEKLLAAFPNLMNLSRT [A19M]
The protein stability index of the first is higher: 2.3 for the first, 2.1 for the second.

In the case of PSLLELAWEKLLAAFPNLLNLSRT [A19L], the protein stability index is reported as 1.8.

Variants of: B2
Assay: as above
Details: c terminus: a fixed tail appended

Going from EIVDKQHVYIGSAGLDWQSLGQMK [W1E] to MIVDKQHVYIGSAGLDWQSLGQMK [W1M], the protein stability index falls from 2.24 to 1.43.

First: YIVDKQHVYIGSAGLDWQSLGQMK [W1Y]
Second: LIVDKQHVYIGSAGLDWQSLGQMK [W1L]
The protein stability index of the first is higher: 2.23 for the first, 2.12 for the second.

Compared with QIVDKQHVYIGSAGLDWQSLGQMK [W1Q], HIVDKQHVYIGSAGLDWQSLGQMK [W1H] is lower in protein stability index: 2.5 for the first, 2.12 for the second.

Going from FIVDKQHVYIGSAGLDWQSLGQMK [W1F] to AIVDKQHVYIGSAGLDWQSLGQMK [W1A], the protein stability index falls from 2.4 to 2.11.

First: VIVDKQHVYIGSAGLDWQSLGQMK [W1V]
Second: TIVDKQHVYIGSAGLDWQSLGQMK [W1T]
The protein stability index of the first is lower: 1.79 for the first, 2.41 for the second.

Going from PIVDKQHVYIGSAGLDWQSLGQMK [W1P] to SIVDKQHVYIGSAGLDWQSLGQMK [W1S], the protein stability index falls from 2.32 to 2.2.

Compared with RIVDKQHVYIGSAGLDWQSLGQMK [W1R], NIVDKQHVYIGSAGLDWQSLGQMK [W1N] is lower in protein stability index: 2.77 for the first, 2.19 for the second.

First: CIVDKQHVYIGSAGLDWQSLGQMK [W1C]
Second: IIVDKQHVYIGSAGLDWQSLGQMK [W1I]
The protein stability index of the first is lower: 1.59 for the first, 3.17 for the second.

Going from DIVDKQHVYIGSAGLDWQSLGQMK [W1D] to KIVDKQHVYIGSAGLDWQSLGQMK [W1K], the protein stability index rises from 2.15 to 2.32.

First: GIVDKQHVYIGSAGLDWQSLGQMK [W1G]
Second: WIPDKQHVYIGSAGLDWQSLGQMK [V3P]
The protein stability index of the first is higher: 2.67 for the first, 1.97 for the second.

Going from WIDDKQHVYIGSAGLDWQSLGQMK [V3D] to WIFDKQHVYIGSAGLDWQSLGQMK [V3F], the protein stability index falls from 2.02 to 1.96.

First: WIGDKQHVYIGSAGLDWQSLGQMK [V3G]
Second: WIRDKQHVYIGSAGLDWQSLGQMK [V3R]
The protein stability index of the first is higher: 2.1 for the first, 1.52 for the second.

Going from WICDKQHVYIGSAGLDWQSLGQMK [V3C] to WIHDKQHVYIGSAGLDWQSLGQMK [V3H], the protein stability index rises from 1.6 to 1.74.

Going from WILDKQHVYIGSAGLDWQSLGQMK [V3L] to WIEDKQHVYIGSAGLDWQSLGQMK [V3E], the protein stability index rises from 2.01 to 2.09.

Compared with WIYDKQHVYIGSAGLDWQSLGQMK [V3Y], WIMDKQHVYIGSAGLDWQSLGQMK [V3M] is lower in protein stability index: 1.56 for the first, 1.5 for the second.

Going from WIQDKQHVYIGSAGLDWQSLGQMK [V3Q] to WIADKQHVYIGSAGLDWQSLGQMK [V3A], the protein stability index rises from 1.83 to 1.86.

Going from WINDKQHVYIGSAGLDWQSLGQMK [V3N] to WIIDKQHVYIGSAGLDWQSLGQMK [V3I], the protein stability index rises from 2.35 to 2.64.

First: WIWDKQHVYIGSAGLDWQSLGQMK [V3W]
Second: WITDKQHVYIGSAGLDWQSLGQMK [V3T]
The protein stability index of the first is higher: 2.13 for the first, 1.59 for the second.

Going from WIKDKQHVYIGSAGLDWQSLGQMK [V3K] to WISDKQHVYIGSAGLDWQSLGQMK [V3S], the protein stability index rises from 1.84 to 2.09.

Going from WQVDKQHVYIGSAGLDWQSLGQMK [I2Q] to WFVDKQHVYIGSAGLDWQSLGQMK [I2F], the protein stability index falls from 2.48 to 1.64.

Compared with WHVDKQHVYIGSAGLDWQSLGQMK [I2H], WAVDKQHVYIGSAGLDWQSLGQMK [I2A] is higher in protein stability index: 1.88 for the first, 2.32 for the second.

Going from WDVDKQHVYIGSAGLDWQSLGQMK [I2D] to WNVDKQHVYIGSAGLDWQSLGQMK [I2N], the protein stability index falls from 2.16 to 1.61.

Going from WVVDKQHVYIGSAGLDWQSLGQMK [I2V] to WWVDKQHVYIGSAGLDWQSLGQMK [I2W], the protein stability index rises from 1.39 to 1.86.

First: WRVDKQHVYIGSAGLDWQSLGQMK [I2R]
Second: WEVDKQHVYIGSAGLDWQSLGQMK [I2E]
The protein stability index of the first is lower: 2.17 for the first, 2.18 for the second.

Compared with WPVDKQHVYIGSAGLDWQSLGQMK [I2P], WYVDKQHVYIGSAGLDWQSLGQMK [I2Y] is lower in protein stability index: 2.65 for the first, 1.82 for the second.

Going from WMVDKQHVYIGSAGLDWQSLGQMK [I2M] to WLVDKQHVYIGSAGLDWQSLGQMK [I2L], the protein stability index rises from 1.5 to 1.88.

Going from WGVDKQHVYIGSAGLDWQSLGQMK [I2G] to WTVDKQHVYIGSAGLDWQSLGQMK [I2T], the protein stability index falls from 1.87 to 1.46.

Compared with WSVDKQHVYIGSAGLDWQSLGQMK [I2S], WKVDKQHVYIGSAGLDWQSLGQMK [I2K] is lower in protein stability index: 2.08 for the first, 1.9 for the second.

Going from WCVDKQHVYIGSAGLDWQSLGQMK [I2C] to WIVDDQHVYIGSAGLDWQSLGQMK [K5D], the protein stability index falls from 1.83 to 1.42.

Compared with WIVDAQHVYIGSAGLDWQSLGQMK [K5A], WIVDCQHVYIGSAGLDWQSLGQMK [K5C] is lower in protein stability index: 4.17 for the first, 2.29 for the second.

First: WIVTKQHVYIGSAGLDWQSLGQMK [D4T]
Second: WIVMKQHVYIGSAGLDWQSLGQMK [D4M]
The protein stability index of the first is higher: 4.09 for the first, 2.12 for the second.

Going from WIVWKQHVYIGSAGLDWQSLGQMK [D4W] to WIVKKQHVYIGSAGLDWQSLGQMK [D4K], the protein stability index rises from 1.96 to 4.58.

First: WIVSKQHVYIGSAGLDWQSLGQMK [D4S]
Second: WIVLKQHVYIGSAGLDWQSLGQMK [D4L]
The protein stability index of the first is higher: 2.29 for the first, 1.84 for the second.

Going from WIVVKQHVYIGSAGLDWQSLGQMK [D4V] to WIVEKQHVYIGSAGLDWQSLGQMK [D4E], the protein stability index falls from 3.83 to 1.39.

First: WIVPKQHVYIGSAGLDWQSLGQMK [D4P]
Second: WIVAKQHVYIGSAGLDWQSLGQMK [D4A]
The protein stability index of the first is lower: 1.13 for the first, 1.83 for the second.

First: WIVQKQHVYIGSAGLDWQSLGQMK [D4Q]
Second: WIVRKQHVYIGSAGLDWQSLGQMK [D4R]
The protein stability index of the first is lower: 1.45 for the first, 3.94 for the second.

Going from WIVNKQHVYIGSAGLDWQSLGQMK [D4N] to WIVGKQHVYIGSAGLDWQSLGQMK [D4G], the protein stability index falls from 3.09 to 1.39.

With WIVHKQHVYIGSAGLDWQSLGQMK [D4H] the protein stability index was 2.37.
